The source of these data is patent publication US20260256913A1 (UTC TYHERAPEUTICS SHANGNAI, published 2026).

The target in test [1] is T1, CD40-Fc recombinant protein (human, UniProt P25942 21-193).
T1 construct: also called CD40-Fc protein; CD40-Fc antigen; not shown: Fc part; detected with anti-human IgG Fc antibody
In words: flow cytometry, CD40-Fc staining of transduced T cells at day 13. The text has this: Lentivirus-based CART cells were generated using the following procedures: T cells were isolated from PBMC and activated by anti-CD3/CD28 beads (T cell:beads=1:3). […] At day 13, the CAR expression was detected using anti-CD27 antibody, and the expression of LACO was detected using CD40-Fc (FIG. 42A-42B and Table 10). Generally, the transduction efficiency was between 30% to 50%.
A general note: A flow cytometer gives signals particle by particle.

The target in test [2] is CD40-Fc recombinant protein (human) (UniProt P25942). The test is described as follows: flow cytometry, CD40-Fc staining of transduced T cells at day 13; control CAR without LACO.

B1: LACO A409-9.3h11 (of CD27z-9-9.3) (bispecific antibody)
chain: QAVLTQPPSASGAPGQRVSISCSGGSSNIGSHTVNWYQQLPGAAPRLLMFSNYQRPSGVPDRFSASKSGTSASLAISGLRSEDEADYYCAAWDGTLKGYVFGTGTKVTVLGGGGSGGGGSGGGGSEVQLVESGGGVVLPGRSLRLSCAASGFTLRSYGMHWVRQATGKGLEWVSAIGTAGDTYYPGSVKGRFTISRENAKNSLYLQMNSLRAGDTAVYYCARADRLGGYGMDVWGQGTTVTVSSGGGGSQVKLQESGPGLVKPSETLSITCTVSGFSLSDYGVHWVRQSPGKGLEWLGVIWAGGGTNYNSALMSRKTISKDNSKSQVFLKMSSLTAADTAVYYCARDKGYSYYYSMDYWGQGTTVTVSSGGGGSGGGGSGGGGSDIQLTQSPSSLSVSVGDRVTISCRASESVEYYVTSLMQWYQQKPGQAPKLLIFAASNVESGVPSRFSGSGSGTNFTLTISSVQEEDFAMYFCQQSRKVPYTFGGGTKLEIK
notes: Anti-CD40 scFv 409 joined to anti-CD28 scFv 9.3h11, co-expressed with CD27z through T2A
Regarding B1, in test [1], the “LACO % (cells positive in CD40-Fc staining)” value is 27.3% and the “LACO/MFI (CD40-Fc staining)” value stood at 127 MFI.

B2: LACO A4025-9.3h11 (of CD27z-25-9.3) (bispecific antibody)
chain: QSALTQPASVSGSPGQSITVSCTGTRSDIGDYNYVSWYQQHPGKAPKLIIYDVSSRPSGVSNRYSGSKSGNTASLTISGLQAEDEADYYCSSYTSSSTLVFGGGTKVTVLGGGGSGGGGSGGGGSQVQLVQSGGGLVQPGGSLRLSCAASGFTFSSNWMSWVRQAPGKGLEWVANINQDGSEKYYVDSVKGRFTISRDNAKNSLYLQLNSLRAEDTAEYYCARGGYRYAYWGQGTLVTVSSGGGGSQVKLQESGPGLVKPSETLSITCTVSGFSLSDYGVHWVRQSPGKGLEWLGVIWAGGGTNYNSALMSRKTISKDNSKSQVFLKMSSLTAADTAVYYCARDKGYSYYYSMDYWGQGTTVTVSSGGGGSGGGGSGGGGSDIQLTQSPSSLSVSVGDRVTISCRASESVEYYVTSLMQWYQQKPGQAPKLLIFAASNVESGVPSRFSGSGSGTNFTLTISSVQEEDFAMYFCQQSRKVPYTFGGGTKLEIK
notes: Anti-CD40 scFv 4025 joined to anti-CD28 scFv 9.3h11, co-expressed with CD27z through T2A
Consider B2, for which, in test [1], the “LACO % (cells positive in CD40-Fc staining)” value was 51.4% and the “LACO/MFI (CD40-Fc staining)” value was 221 MFI.

B3: CD27-CAR (CD27z) (protein)
chain: ATPAPKSCPERHYWAQGKLCCQMCEPGTFLVKDCDQHRKAAQCDPCIPGVSFSPDHHTRPHCESCRHCNSGLLVRNCTITANAECACRNGWQCRDKECTECDPLPNPSLTARSSQALSPHPQPTHLPYVSEMLEARTAGHMQTLADFRQLPARTLSTHWPPQRSLCSSDFIRILVIFSGMFLVFTLAGALFLHQRRKYRSNKGESPVEPAEPCRYSCPREEEGSTIPIQEDYRKPEPACSPRVKFSRSADAPAYQQGQNQLYNELNLGRREEYDVLDKRRGRDPEMGGKPRRKNPQEGLYNELQKDKMAEAYSEIGMKGERRRGKGHDGLYQGLSTATKDTYDALHMQALPPR
On to B3, for which, in test [2], the LACO % (cells positive in CD40-Fc staining) was 2.9% and the LACO/MFI (CD40-Fc staining) was 44.3 MFI.
